Measurements: patent US20230312741A1 (published 2023)

Assays:
[1] = target: T1, human CD73 expressed on the cell surface (human, UniProt P21589 27-549); assay: cell-based or functional assay
T1 sequence: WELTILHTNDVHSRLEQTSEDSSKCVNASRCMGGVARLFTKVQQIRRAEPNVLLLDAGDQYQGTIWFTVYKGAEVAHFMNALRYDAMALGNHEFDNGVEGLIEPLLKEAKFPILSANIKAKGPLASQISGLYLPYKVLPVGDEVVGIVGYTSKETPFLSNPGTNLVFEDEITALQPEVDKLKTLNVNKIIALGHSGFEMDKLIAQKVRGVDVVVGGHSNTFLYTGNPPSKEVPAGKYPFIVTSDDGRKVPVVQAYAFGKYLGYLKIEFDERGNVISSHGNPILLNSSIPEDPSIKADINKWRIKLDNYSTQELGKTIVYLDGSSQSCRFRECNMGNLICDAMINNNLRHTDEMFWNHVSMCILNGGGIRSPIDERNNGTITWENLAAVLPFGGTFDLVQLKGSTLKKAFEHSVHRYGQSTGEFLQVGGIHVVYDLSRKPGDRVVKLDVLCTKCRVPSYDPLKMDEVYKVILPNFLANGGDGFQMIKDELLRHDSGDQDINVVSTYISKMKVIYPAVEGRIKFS

[2] = target: T2, human CD73 antigen (human, UniProt P21589 27-547); assay: ForteBio BLI; antigen on sensor, 100 nM scFv; monovalent; 1:1 model
T2 construct: also called Biotinylated Human CD73
T2 sequence (looked up): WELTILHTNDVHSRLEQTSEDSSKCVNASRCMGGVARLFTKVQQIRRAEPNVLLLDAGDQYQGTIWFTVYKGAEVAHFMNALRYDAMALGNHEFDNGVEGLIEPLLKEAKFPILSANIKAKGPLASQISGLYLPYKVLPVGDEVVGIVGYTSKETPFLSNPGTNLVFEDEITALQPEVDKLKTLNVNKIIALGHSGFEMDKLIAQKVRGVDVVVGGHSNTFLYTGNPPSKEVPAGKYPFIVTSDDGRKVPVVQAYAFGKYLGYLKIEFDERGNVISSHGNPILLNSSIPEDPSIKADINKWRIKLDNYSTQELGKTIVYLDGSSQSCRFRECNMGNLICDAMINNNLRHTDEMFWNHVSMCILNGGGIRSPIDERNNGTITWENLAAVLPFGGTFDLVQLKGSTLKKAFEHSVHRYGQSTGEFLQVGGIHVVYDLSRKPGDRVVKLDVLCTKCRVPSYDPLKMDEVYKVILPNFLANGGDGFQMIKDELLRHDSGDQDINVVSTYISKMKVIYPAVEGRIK
Description: (§1) Human or cynomolgus monkey CD73 antigen protein was loaded on-line to the AHQ sensor (ForteBio) for ForteBio affinity measurement. […] Kinetic analysis was performed by using a 1:1 binding model.

[3] = target: T3, cynomolgus monkey CD73 antigen (cynomolgus monkey, UniProt A0A2K5V5U7 27-547); assay: as above
T3 construct: also called Biotinylated cynomolgus monkey CD73
T3 sequence: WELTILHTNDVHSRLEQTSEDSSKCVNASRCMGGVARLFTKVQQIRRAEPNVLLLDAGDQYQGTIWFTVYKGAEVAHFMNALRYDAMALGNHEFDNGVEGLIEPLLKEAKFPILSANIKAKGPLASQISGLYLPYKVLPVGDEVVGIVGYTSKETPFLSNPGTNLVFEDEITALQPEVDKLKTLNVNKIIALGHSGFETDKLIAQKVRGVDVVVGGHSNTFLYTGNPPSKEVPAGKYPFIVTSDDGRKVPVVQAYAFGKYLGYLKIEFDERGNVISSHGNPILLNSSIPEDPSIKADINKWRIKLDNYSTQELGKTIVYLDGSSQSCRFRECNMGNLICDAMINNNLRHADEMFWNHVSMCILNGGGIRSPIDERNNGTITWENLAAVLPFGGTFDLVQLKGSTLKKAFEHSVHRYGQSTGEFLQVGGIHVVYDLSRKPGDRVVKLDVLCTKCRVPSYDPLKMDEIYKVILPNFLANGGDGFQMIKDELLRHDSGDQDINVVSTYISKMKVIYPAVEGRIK
Description: as §1

B1: ADI-37497 (antibody, human IgG4 S228P, kappa, F234A L235A, V domains shown)
VH: EVQLVESGGGLVQPGGSLRLSCAASGFTFDDYFMHWVRQAPGKGLEWVSGISWSSGPIDYADSVKGRFTISRDNAKNSLYLQMNSLRAEDTAVYYCAKGKYLPTGSVDYWGQGTLVTVSS
VL: EIVLTQSPGTLSLSPGERATLSCRASQSVSSSYLAWYQQKPGQAPRLLIYGASSRATGIPDRFSGSGSGTDFTLTISRLEPEDFAVYYCQQYYDYPPITFGGGTKVEIKR
IC50 for inhibiting the enzymatic activity of CD73 (Calu-6 cells) [1]: 0.147 µg/mL

B2: ADI-37496 (antibody, human IgG4 S228P, kappa, F234A L235A, V domains shown)
VH: EVQLVESGGGLVQPGRSLRLSCAASGFTFDDFYMHWVRQAPGKGLEWVSGISWSSTSIDYADSVKGRFTISRDNAKNSLYLQMNSLRAEDTAVYYCAKGKYLPTGSVDYWGQGTLVTVSS
VL: EIVLTQSPGTLSLSPGERATLSCRASQSVSSSYLAWYQQKPGQAPRLLIYGASSRATGIPDRFSGSGSGTDFTLTISRLEPEDFAVYYCQQYYDYPPITFGGGTKVEIKR
IC50 for inhibiting the enzymatic activity of CD73 (Calu-6 cells) [1]: 0.173 µg/mL

B3: ADI-37532 (antibody, human IgG4 S228P, kappa, F234A L235A, V domains shown)
VH: QVQLVESGGGVVQPGRSLRLSCAASGFTFSSYSMHWVRQAPGKGLEWVAHIVEGSDKYYADSVKGRFTISRDNSKNTLYLQMNSLRAEDTAVYYCARSRYDWSLFDIWGQGTMVTVSS
VL: EIVLTQSPGTLSLSPGERATLSCGASQSVSSSYLAWYQQKPGQAPRLLIYGASSRATGIPDRFSGSGSGTDFTLTISRLEPEDFAVYYCQQYVLYPFTFGGGTKVEIKR
IC50 for inhibiting the enzymatic activity of CD73 (Calu-6 cells) [1]: 0.114 µg/mL

B4: ADI-37504 (antibody, human IgG4 S228P, kappa, F234A L235A, V domains shown)
VH: EVQLLESGGGLVQPGGSLRLSCAASGFTFHNYAMSWVRQAPGKGLEWVSAISGTGRATYYADSVKGRFTISRDNSKNTLYLQMNSLRAEDTAVYYCARGGPYGSGSYWDTFDYWGQGTLVTVSS
VL: EIVMTQSPATLSVSPGERATLSCRASQSVSSNLAWYQQKPGQAPRLLIYGASTRATGIPARFSGSGSGTEFTLTISSLQSEDFAVYYCQQYTNHYTFGGGTKVEIKR
IC50 for inhibiting the enzymatic activity of CD73 (Calu-6 cells) [1]: 0.07 µg/mL

B5: scfv fragment of ADI-37503 (scFv, V domains shown)
VH: EVQLLESGGGLVQPGGSLRLSCAASGFTFSNYAMSWVRQAPGKGLEWVSAISGRASSTYYADSVKGRFTISRDNSKNTLYLQMNSLRAEDTAVYYCARGGPYGSGSYWDTFDYWGQGTLVTVSS
VL: EIVMTQSPATLSVSPGERATLSCRASQSVSSNLAWYQQKPGQAPRLLIYGASTRATGIPARFSGSGSGTEFTLTISSLQSEDFAVYYCQQYTNHYTFGGGTKVEIK
Kd [2]: 7.95 nM | Kd [3]: 6.61 nM

B6: ADI-37507 (antibody, human IgG4 S228P, kappa, F234A L235A, V domains shown)
VH: EVQLLESGGGLVQPGGSLRLSCAASGFTFLNYAMAWVRQAPGKGLEWVSAISGRATSTYYADSVKGRFTISRDNSKNTLYLQMNSLRAEDTAVYYCARGGPYGSGSYWDTFDYWGQGTLVTVSS
VL: EIVMTQSPATLSVSPGERATLSCRASQSVSSNLAWYQQKPGQAPRLLIYGASTRATGIPARFSGSGSGTEFTLTISSLQSEDFAVYYCQQYTNHYTFGGGTKVEIKR
IC50 for inhibiting the enzymatic activity of CD73 (Calu-6 cells) [1]: 0.078 µg/mL

B7: ADI-37503 (antibody, human IgG4 S228P, kappa, F234A L235A, V domains shown)
VH: EVQLLESGGGLVQPGGSLRLSCAASGFTFSNYAMSWVRQAPGKGLEWVSAISGRASSTYYADSVKGRFTISRDNSKNTLYLQMNSLRAEDTAVYYCARGGPYGSGSYWDTFDYWGQGTLVTVSS
VL: EIVMTQSPATLSVSPGERATLSCRASQSVSSNLAWYQQKPGQAPRLLIYGASTRATGIPARFSGSGSGTEFTLTISSLQSEDFAVYYCQQYTNHYTFGGGTKVEIKR
IC50 for inhibiting the enzymatic activity of CD73 (Calu-6 cells) [1]: 0.062 µg/mL

B8: scfv fragment of ADI-37505 (scFv, V domains shown)
VH: QVQLVESGGGLVQPGGSLRLSCAASGFTFSNYAMTWVRQAPGKGLEWVSAISGRGTATYYADSVKGRFTISRDNSKNTLYLQMNSLRAEDTAVYYCARGGPYGSGSYWDTFDYWGQGTLVTVSS
VL: EIVMTQSPATLSVSPGERATLSCRASQSVSSNLAWYQQKPGQAPRLLIYGASTRATGIPARFSGSGSGTEFTLTISSLQSEDFAVYYCQQYTNHYTFGGGTKVEIK
Kd [2]: 5.56 nM | Kd [3]: 5.34 nM

B9: scfv fragment of ADI-37504 (scFv, V domains shown)
VH: EVQLLESGGGLVQPGGSLRLSCAASGFTFHNYAMSWVRQAPGKGLEWVSAISGTGRATYYADSVKGRFTISRDNSKNTLYLQMNSLRAEDTAVYYCARGGPYGSGSYWDTFDYWGQGTLVTVSS
VL: EIVMTQSPATLSVSPGERATLSCRASQSVSSNLAWYQQKPGQAPRLLIYGASTRATGIPARFSGSGSGTEFTLTISSLQSEDFAVYYCQQYTNHYTFGGGTKVEIK
Kd [2]: 15.4 nM | Kd [3]: 20.2 nM

B10: scfv fragment of ADI-37506 (scFv, V domains shown)
VH: EVQLLESGGGLVQPGGSLRLSCAASGFTFSNLAMSWVRQAPGKGLEWVSAISGRATSTYYADSVKGRFTISRDNSKNTLYLQMNSLRAEDTAVYYCARGGPYGSGSYWDTFDYWGQGTLVTVSS
VL: EIVMTQSPATLSVSPGERATLSCRASQSVSSNLAWYQQKPGQAPRLLIYGASTRATGIPARFSGSGSGTEFTLTISSLQSEDFAVYYCQQYTNHYTFGGGTKVEIK
Kd [2]: 5.41 nM | Kd [3]: 4.77 nM

B11: ADI-37513 (antibody, human IgG4 S228P, kappa, F234A L235A, V domains shown)
VH: EVQLLESGGGVVQPGRSLRLSCAASGFTFNFYGMHWVRQAPGKGLEWVAVINDEGINKYYADSVKGRFTISRDNSKNTLYLQMNSLRAEDTAVYYCARGGARYPIAFDIWGQGTMVTVSS
VL: DIQLTQSPSSVSASVGDRVTITCRASQDISSWLAWYQQKPGKAPKLLIYAASSLQSGVPSRFSGSGSGTDFTLTISSLQPEDFATYYCQQANDFPITFGGGTKVEIKR
IC50 for inhibiting the enzymatic activity of CD73 (Calu-6 cells) [1]: 0.143 µg/mL

B12: ADI-37522 (antibody, human IgG4 S228P, kappa, F234A L235A, V domains shown)
VH: QVQLVESGGGVVQPGRSLRLSCAASGFTFSHYGMHWVRQAPGKGLEWVAVISDEGSNKYYADSVKGRFTISRDNSKNTLYLQMNSLRAEDTAVYYCARGWLRYPIAFDIWGQGTMVTVSS
VL: DIQLTQSPSSVSASVGDRVTITCRASQDISSWLAWYQQKPGKAPKLLIYAASSLQSGVPSRFSGSGSGTDFTLTISSLQPEDFATYYCQQANDFPITFGGGTKVEIKR
IC50 for inhibiting the enzymatic activity of CD73 (Calu-6 cells) [1]: 0.146 µg/mL

B13: ADI-37542 (antibody, human IgG4 S228P, kappa, F234A L235A, V domains shown)
VH: QVQLQESGPGLVKPSETLSLTCAVSGYSISEGYYWGWIRQPPGKGLEWIGSIYHTGFTYYNPSLKSRVTISVDTSKNQFSLKLSSVTAADTAVYYCARASIYTPPPEYFQHWGQGTLVTVSS
VL: DIQMTQSPSTLSASVGDRVTITCRASQSISSWLAWYQQKPGKAPKLLIYDASSLESGVPSRFSGSGSGTEFTLTISSLQPDDFATYYCQQSRIYSTFGGGTKVEIKR
IC50 for inhibiting the enzymatic activity of CD73 (Calu-6 cells) [1]: 0.189 µg/mL

B14: ADI-37543 (antibody, human IgG4 S228P, kappa, F234A L235A, V domains shown)
VH: QVQLQESGPGLVKPSETLSLTCAVSGYSISSGYYWAWIRQPPGKGLEWIGSIFHSGFTFYNPSLKSRVTISVDTSKNQFSLKLSSVTAADTAVYYCARASIYTPPPEYFQHWGQGTLVTVSS
VL: DIQMTQSPSTLSASVGDRVTITCRASQSISSWLAWYQQKPGKAPKLLIYDASSLESGVPSRFSGSGSGTEFTLTISSLQPDDFATYYCQQSRIYSTFGGGTKVEIKR
IC50 for inhibiting the enzymatic activity of CD73 (Calu-6 cells) [1]: 0.196 µg/mL
